Experimental data from PMC4464616, “SIRT6 protein deacetylase interacts with MYH DNA glycosylase, APE1 endonuclease, and Rad9–Rad1–Hus1 checkpoint clamp” (BMC Molecular Biology, 2015).
Residue numbers refer to the chain shown, from its start.

B1: FLAG-tagged mouse Sirt6 (FLAG-mSirt6), wild type (natural protein, UniProt P59941 1-334, looked up)
chain: MSVNYAAGLSPYADKGKCGLPEIFDPPEELERKVWELARLMWQSSSVVFHTGAGISTASGIPDFRGPHGVWTMEERGLAPKFDTTFENARPSKTHMALVQLERMGFLSFLVSQNVDGLHVRSGFPRDKLAELHGNMFVEECPKCKTQYVRDTVVGTMGLKATGRLCTVAKTRGLRACRGELRDTILDWEDSLPDRDLMLADEASRTADLSVTLGTSLQIRPSGNLPLATKRRGGRLVIVNLQPTKHDRQADLRIHGYVDEVMCRLMKHLGLEIPAWDGPCVLDKALPPLPRPVALKAEPPVHLNGAVHVSYKSKPNSPILHRPPKRVKTEAAPS
notes: mouse Sirt6, full length cDNA in pcDNA3.1; about 90% pure
B2: GST-hMYH(65-350) (domain or fragment, human, UniProt Q9UIF7-3 65-350, looked up)
chain: ASVSSYHLFRDVAEVTAFRGSLLSWYDQEKRDLPWRRRAEDEMDLDRRAYAVWVSEVMLQQTQVATVINYYTGWMQKWPTLQDLASASLEEVNQLWAGLGYYSRGRRLQEGARKVVEELGGHMPRTAETLQQLLPGVGRYTAGAIASIAFGQATGVVDGNVARVLCRVRAIGADPSSTLVSQQLWGLAQQLVDPARPGDFNQAAMELGATVCTPQRPLCSQCPVESLCRARQRVEQEQLLASGSLSGSPDVEECAPNTGQCHLCLPPSEPWDQTLGVVNFPRKASR
notes: also called MYHΔC5; ΔC5; source: purified, immobilised on beads
B3: GST-hRad1 (natural protein, human, UniProt O60671 1-282, looked up)
chain: MPLLTQQIQDEDDQYSLVASLDNVRNLSTILKAIHFREHATCFATKNGIKVTVENAKCVQANAFIQAGIFQEFKVQEESVTFRINLTVLLDCLSIFGSSPMPGTLTALRMCYQGYGYPLMLFLEEGGVVTVCKINTQEPEETLDFDFCSTNVINKIILQSEGLREAFSELDMTSEVLQITMSPDKPYFRLSTFGNAGSSHLDYPKDSDLMEAFHCNQTQVNRYKISLLKPSTKALVLSCKVSIRTDNRGFLSLQYMIRNEDGQICFVEYYCCPDEEVPESES
notes: human Rad1, subunit of the Rad9-Rad1-Hus1 checkpoint clamp; also called GST-Rad1; GST-tagged hRad1; source: immobilised on beads
B4: His-tagged human Hus1 (hHus1) (natural protein, UniProt O60921 1-280, looked up)
chain: MKFRAKIVDGACLNHFTRISNMIAKLAKTCTLRISPDKLNFILCDKLANGGVSMWCELEQENFFNEFQMEGVSAENNEIYLELTSENLSRALKTAQNARALKIKLTNKHFPCLTVSVELLSMSSSSRIVTHDIPIKVIPRKLWKDLQEPVVPDPDVSIYLPVLKTMKSVVEKMKNISNHLVIEANLDGELNLKIETELVCVTTHFKDLGNPPLASESTHEDRNVEHMAEVHIDIRKLLQFLAGQQVNPTKALCNIVNNKMVHFDLLHEDVSLQYFIPALS
notes: human Hus1, subunit of the Rad9-Rad1-Hus1 checkpoint clamp; pET21a usually adds a C-terminal His6 (surmise); source: E. coli BL21-Star with pET21a-hHus1, purified

Assays:
GST-hRad9 = target: T1, GST-hRad9 (human, UniProt Q99638 1-391); experiment: pull-down; GST fusion protein immobilised on beads; 50 ug/ml ethidium bromide added for 30 min before the partner; bound protein detected by Western blot (FLAG, hAPE1 or His antibody); in some panels a further purified partner (hAPE1, mSirt6, hHus1) was added; settings: both partners purified
T1 construct: human Rad9, subunit of the Rad9-Rad1-Hus1 checkpoint clamp; also called GST-Rad9; GST-tagged hRad9; source: immobilised on beads
T1 sequence (looked up): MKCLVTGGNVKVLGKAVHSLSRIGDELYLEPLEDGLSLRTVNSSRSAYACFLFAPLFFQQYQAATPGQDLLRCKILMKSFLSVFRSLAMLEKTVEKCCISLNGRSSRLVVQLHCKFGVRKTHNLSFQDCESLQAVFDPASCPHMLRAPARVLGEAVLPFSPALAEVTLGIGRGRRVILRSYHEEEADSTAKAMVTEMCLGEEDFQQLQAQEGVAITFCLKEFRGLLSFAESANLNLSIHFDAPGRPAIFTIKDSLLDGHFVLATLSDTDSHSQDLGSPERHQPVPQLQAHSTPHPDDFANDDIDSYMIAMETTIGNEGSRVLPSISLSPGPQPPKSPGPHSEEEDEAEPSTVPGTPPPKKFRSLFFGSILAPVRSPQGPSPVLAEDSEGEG

GST-hMYH(1-350) Q324H = target: T2, GST-hMYH(1-350) Q324H (human, UniProt Q9UIF7-3 1-350, Q324H); experiment: as above; settings: both partners purified
T2 construct: human MutY homolog (MYH, MUTYH), residues 1-350 with Q324H, a variant found in MAP patients; also called hMYH^Q324H; Q338H according to the new nomenclature; source: purified, immobilised on beads
T2 sequence (looked up): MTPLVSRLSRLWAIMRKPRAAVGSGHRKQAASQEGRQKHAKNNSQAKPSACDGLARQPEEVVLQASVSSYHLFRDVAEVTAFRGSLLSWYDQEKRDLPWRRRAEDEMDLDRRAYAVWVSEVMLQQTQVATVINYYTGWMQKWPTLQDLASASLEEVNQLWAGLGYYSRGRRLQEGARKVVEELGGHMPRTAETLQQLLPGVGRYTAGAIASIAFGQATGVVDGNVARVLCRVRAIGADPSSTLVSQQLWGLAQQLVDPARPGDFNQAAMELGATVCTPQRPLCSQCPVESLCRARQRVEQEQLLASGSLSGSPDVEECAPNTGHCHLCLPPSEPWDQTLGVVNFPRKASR

GST-hMYH(1-350) = target: T3, GST-hMYH(1-350) (human, UniProt Q9UIF7-3 1-350); experiment: as above; settings: both partners purified
T3 construct: also called MYHΔC3; ΔC3; source: purified, immobilised on beads
T3 sequence (looked up): T2 sequence (looked up) with H324Q

[1] = target: human APE1 (hAPE1), recombinant (human, UniProt P27695 1-318); experiment: cell-based or functional assay
[2] = target: T4, mouse Myh (mMyh), recombinant (mouse, UniProt Q99P21 1-515); experiment: cell-based or functional assay
T4 sequence (looked up): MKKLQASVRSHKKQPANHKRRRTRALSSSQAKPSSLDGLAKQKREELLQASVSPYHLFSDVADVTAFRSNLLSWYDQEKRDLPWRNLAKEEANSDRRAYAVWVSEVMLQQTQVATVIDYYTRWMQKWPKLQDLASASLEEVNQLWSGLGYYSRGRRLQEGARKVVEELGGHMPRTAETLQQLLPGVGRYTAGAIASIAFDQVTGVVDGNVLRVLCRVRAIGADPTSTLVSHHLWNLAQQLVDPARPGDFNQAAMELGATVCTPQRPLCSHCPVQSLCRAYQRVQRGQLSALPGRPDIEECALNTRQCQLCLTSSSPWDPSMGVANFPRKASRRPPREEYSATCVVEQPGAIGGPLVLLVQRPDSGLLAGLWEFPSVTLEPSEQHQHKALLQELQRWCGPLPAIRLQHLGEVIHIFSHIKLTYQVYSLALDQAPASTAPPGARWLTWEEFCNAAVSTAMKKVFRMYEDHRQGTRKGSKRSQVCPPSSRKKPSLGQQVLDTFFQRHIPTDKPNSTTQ

[3] = target: B1; experiment: pull-down; GST fusion protein immobilised on beads; 50 ug/ml ethidium bromide added for 30 min before the partner; bound protein detected by Western blot (FLAG, hAPE1 or His antibody); in some panels a further purified partner (hAPE1, mSirt6, hHus1) was added; settings: both partners purified

human APE1 (hAPE1), recombinant, sequence (P27695 whole entry): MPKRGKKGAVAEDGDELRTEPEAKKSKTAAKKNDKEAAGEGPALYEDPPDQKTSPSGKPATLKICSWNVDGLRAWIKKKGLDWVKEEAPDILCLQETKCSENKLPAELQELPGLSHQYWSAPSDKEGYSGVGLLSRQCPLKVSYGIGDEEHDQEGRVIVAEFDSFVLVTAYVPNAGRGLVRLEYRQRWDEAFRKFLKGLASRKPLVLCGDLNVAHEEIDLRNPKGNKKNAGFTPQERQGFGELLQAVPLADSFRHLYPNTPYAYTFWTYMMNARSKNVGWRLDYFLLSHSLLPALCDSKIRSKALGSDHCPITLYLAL

B1 was tested, and the binding result (GST-hRad9) was “binds”, the binding result (GST-hMYH(1-350) Q324H) was “binds” and the “fold stimulation of binding with a tenfold excess of hAPE1, against no hAPE1” value (GST-hMYH(1-350)) was 3 fold. For the same binder, the “3'-phosphodiesterase activity of hAPE1 on 3'-FAM-labeled U/G-DNA (0.01 nM hAPE1, 1-16 nM mSirt6); fold stimulation at a Sirt6/APE1 ratio of 400” value [1] was 2 fold, the “AP endonuclease activity of hAPE1 on FAM-labeled THF/G-DNA (0.002 nM hAPE1, 1-8 nM mSirt6); fold stimulation at a Sirt6/APE1 ratio of 3,000” value [1] was 2 fold and the “mMyh glycosylase activity on FAM-labeled A/G^o-DNA (0.5 nM mMyh, 1-32 nM mSirt6); fold stimulation at a Sirt6/Myh ratio of 32” value [2] was 3 fold.

B2: binds [3].

B3: binds [3].

B4: binds (GST-hMYH(1-350)).
